Laboratory results: US20190218277A1 (Chugai, published 2019)
Where a chain is given by its changes, count along the chain named.

B1: DG_3CH1047-SG1106/3CL-SK1 (antibody)
heavy: QVQLVQSGPDVEKPGASVKVSCKASGYTFTSYYMHWVRQAPGQGLEWMGVINPRGGSRRSAQKFQGRITMTRDTSTSTVYMELSSLRSEDTAVYYCARGGEALFYDSYTTPFDGGSWWFDPWGQGSLVTVSSASTKGPSVFPLAPSSKSTSGGTAALGCLVKDYFPEPVTVSWNSGALTSGVHTFPAVLQSSGLYSLSSVVTVPSSSLGTQTYICNVNHKPSNTKVDKRVEPKSCDKTHTCPPCPAPEAAGGPSVFLFPPKPKDTLMISRTPEVTCVVVDVSHEDPEVKFNWYVDGVEVHNAKTKPREEQYNSTYRVVSVLTVLHQDWLNGKEYKCKVSNAALPAPISKTISKAKGQPREPQVYTLPPSREEMTKNQVSLTCLVKGFYPSDIAVEWESNGQPENNYKTTPPVLDSDGSFFLYSKLTVDKSRWQQGNVFSCSVLHEALHAHYTRKELSLSP
light: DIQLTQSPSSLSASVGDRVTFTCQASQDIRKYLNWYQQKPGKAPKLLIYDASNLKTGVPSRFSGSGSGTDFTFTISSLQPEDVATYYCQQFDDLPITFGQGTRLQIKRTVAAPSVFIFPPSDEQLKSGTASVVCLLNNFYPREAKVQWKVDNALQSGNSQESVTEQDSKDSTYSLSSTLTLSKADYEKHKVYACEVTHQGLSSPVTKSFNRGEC
B2: DG_3CH953-SG182/3CL633-SK1 (antibody, V domains shown)
VH: QVQLVQSGPDVEKPGASVKVSCKASGYTFTSNYIHWVRQAPGQGLEWMGVINPRGGSRRSAQKFQGRITMTRDTSTSTVYMELSSLRSEDTAVYYCARGGRALFYDSYTTPFDGGSWWFDPWGQGSLVTVSS
VL: DIQLTQSPSSLSASVGDRVTITCQASQDIRKYLNWYQQKPGKAPKLLIYDASNLKTGVPSRFSGSGSGTDFTLTISSLQPEDVATYYCQQFDDLPITFGQGTRLQIKR
B3: DG_3CH953-SG1095/3CL119-SK1 (antibody)
heavy: B1 heavy with Y32N, M34I, E101R, L443M, A449N, R453Q, E455S
light: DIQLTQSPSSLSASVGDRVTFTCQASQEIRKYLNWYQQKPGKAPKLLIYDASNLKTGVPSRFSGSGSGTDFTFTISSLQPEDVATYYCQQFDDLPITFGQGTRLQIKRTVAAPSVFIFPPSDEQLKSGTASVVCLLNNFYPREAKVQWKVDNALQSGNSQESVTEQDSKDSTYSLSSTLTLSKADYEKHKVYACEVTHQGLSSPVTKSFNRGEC
B4: DG_3CH953-SG182/3CL666-SK1 (antibody, V domains shown)
VH: B2 VH
VL: B2 VL with D28E
B5: DG_3CH987-SG182/3CL119-SK1 (antibody, V domains shown)
VH: B2 VH with N32Y
VL: B2 VL with I21F, D28E, L73F
B6: DG_3CH992-SG182/3CL633-SK1 (antibody, V domains shown)
VH: B2 VH with P9A, D10E, E12K, N32Y, I68V
VL: B2 VL
B7: DG_3CH989-SG182/3CL633-SK1 (antibody, V domains shown)
VH: B2 VH with P9A, D10E, E12K, I68V
VL: B2 VL
B8: DG_3CH992-SG182/3CL012-SK1 (antibody, V domains shown)
VH: B2 VH with P9A, D10E, E12K, N32Y, I68V
VL: B2 VL with I21F, L73F, D92E
B9: DG_3CH1000-SG182/3CL666-SK1 (antibody, V domains shown)
VH: B2 VH with N32Y, I34M
VL: B2 VL with D28E
B10: DG_3CH989-SG182/3CL119-SK1 (antibody, V domains shown)
VH: B2 VH with P9A, D10E, E12K, I68V
VL: B2 VL with I21F, D28E, L73F
B11: DG_3CH953-SG182/3CL668-SK1 (antibody, V domains shown)
VH: B2 VH
VL: B2 VL with D92E
B12: DG_3CH989-SG182/3CL668-SK1 (antibody, V domains shown)
VH: B2 VH with P9A, D10E, E12K, I68V
VL: B2 VL with D92E
B13: DG_3CH1047-SG1095/3CL-SK1 (antibody, human IgG1, kappa, L234A L235A)
heavy: B1 heavy with L443M, A449N, R453Q, E455S
light: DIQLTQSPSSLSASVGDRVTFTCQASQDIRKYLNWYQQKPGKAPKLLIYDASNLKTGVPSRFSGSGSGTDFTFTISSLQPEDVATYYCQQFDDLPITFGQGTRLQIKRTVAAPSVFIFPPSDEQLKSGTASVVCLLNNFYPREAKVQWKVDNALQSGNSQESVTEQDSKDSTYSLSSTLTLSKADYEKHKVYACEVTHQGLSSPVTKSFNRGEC
B14: DG_3CH1000-SG182/3CL668-SK1 (antibody, V domains shown)
VH: B2 VH with N32Y, I34M
VL: B2 VL with D92E
B15: DG_3CH953-SG1095/3CL012-SK1 (antibody, human IgG1, kappa, L234A L235A)
heavy: B1 heavy with Y32N, M34I, E101R, L443M, A449N, R453Q, E455S
light: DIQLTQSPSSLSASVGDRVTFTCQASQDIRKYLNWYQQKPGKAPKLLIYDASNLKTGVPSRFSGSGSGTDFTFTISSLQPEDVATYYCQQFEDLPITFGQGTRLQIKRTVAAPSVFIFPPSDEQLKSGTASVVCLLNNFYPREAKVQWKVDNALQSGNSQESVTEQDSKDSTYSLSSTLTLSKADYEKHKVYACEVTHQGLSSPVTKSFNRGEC
B16: DG_3CH989-SG182/3CL-SK1 (antibody, V domains shown)
VH: B2 VH with P9A, D10E, E12K, I68V
VL: B2 VL with I21F, L73F
B17: DG_3CH953-SG1095/3CL-SK1 (antibody, human IgG1, kappa, L234A L235A)
heavy: B1 heavy with Y32N, M34I, E101R, L443M, A449N, R453Q, E455S
light: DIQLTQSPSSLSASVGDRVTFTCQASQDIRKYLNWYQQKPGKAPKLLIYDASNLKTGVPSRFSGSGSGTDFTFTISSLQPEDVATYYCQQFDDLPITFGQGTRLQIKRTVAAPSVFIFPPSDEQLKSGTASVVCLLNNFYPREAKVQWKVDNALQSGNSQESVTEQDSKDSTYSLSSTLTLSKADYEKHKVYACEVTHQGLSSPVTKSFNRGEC
B18: DG_3CH1000-SG182/3CL633-SK1 (antibody, V domains shown)
VH: B2 VH with N32Y, I34M
VL: B2 VL
B19: DG_3CH992-SG182/3CL119-SK1 (antibody, V domains shown)
VH: B2 VH with P9A, D10E, E12K, N32Y, I68V
VL: B2 VL with I21F, D28E, L73F
B20: DG_3CH992-SG182/3CL-SK1 (antibody, V domains shown)
VH: B2 VH with P9A, D10E, E12K, N32Y, I68V
VL: B2 VL with I21F, L73F
B21: DG_3CH987-SG182/3CL-SK1 (antibody, V domains shown)
VH: B2 VH with N32Y
VL: B2 VL with I21F, L73F
B22: DG_3CH989-SG182/3CL012-SK1 (antibody, V domains shown)
VH: B2 VH with P9A, D10E, E12K, I68V
VL: B2 VL with I21F, L73F, D92E
B23: DG_3CH989-SG182/3CL666-SK1 (antibody, V domains shown)
VH: B2 VH with P9A, D10E, E12K, I68V
VL: B2 VL with D28E
B24: DG_3CH992-SG182/3CL666-SK1 (antibody, V domains shown)
VH: B2 VH with P9A, D10E, E12K, N32Y, I68V
VL: B2 VL with D28E
B25: DG_3CH953-SG1106/3CL-SK1 (antibody)
heavy: B1 heavy with Y32N, M34I, E101R
light: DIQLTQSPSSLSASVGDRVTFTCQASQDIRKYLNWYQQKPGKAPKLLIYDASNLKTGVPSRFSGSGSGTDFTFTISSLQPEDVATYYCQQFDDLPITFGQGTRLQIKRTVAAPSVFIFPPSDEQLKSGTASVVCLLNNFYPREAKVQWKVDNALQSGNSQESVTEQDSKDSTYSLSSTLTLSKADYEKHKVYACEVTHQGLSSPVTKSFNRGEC
B26: DG_3CH987-SG182/3CL012-SK1 (antibody, V domains shown)
VH: B2 VH with N32Y
VL: B2 VL with I21F, L73F, D92E

What was measured:
[1] = target: T1, Recombinant soluble E protein (0.8E-His) from DENV-3 (DENV-3, UniProt P27915 281-673)
T1 construct: also called DENV-3 E protein; DV3

[2] = target: T2, Recombinant soluble E protein (0.8E-His) from DENV-1 (DENV-1, UniProt P27909 281-675)
T2 construct: also called DENV-1 E protein; DV1

[3] = target: T3, Recombinant soluble E protein (0.8E-His) from DENV-4 (DENV-4, UniProt P09866 280-674); assay: SPR, Biacore T200
T3 construct: also called DENV-4 E protein; DV4

[4] = target: T4, Recombinant soluble E protein (0.8E-His) from DENV-2 (DENV-2, UniProt P14340 281-675); assay: SPR, Biacore T200
T4 construct: also called DENV-2 E protein; DV2

Row | Binder | Kd [1] [pM] | Kd [2] [pM] | binding result [3] | binding result [4]
1 | B1 | 4.71 | 2120 | – | –
2 | B2 | 4.96 | 1650 | binds | binds
3 | B3 | 7.18 | 1990 | binds | binds
4 | B4 | 5.48 | 1690 | binds | binds
5 | B5 | 0.715 | 1530 | binds | binds
6 | B6 | 2.95 | 1270 | binds | binds
7 | B7 | 2.37 | 1540 | binds | binds
8 | B8 | 1.07 | 1720 | binds | binds
9 | B9 | 2.5 | 1660 | binds | binds
10 | B10 | 6.83 | 1530 | binds | binds
11 | B11 | 2.36 | 1680 | binds | binds
12 | B12 | 3.03 | 1500 | binds | binds
13 | B13 | 2.93 | 2090 | – | –
14 | B14 | 0.8 | 1680 | binds | binds
15 | B15 | 5.53 | 1860 | binds | binds
16 | B16 | 0.448 | 1840 | binds | binds
17 | B17 | 7.03 | 1790 | – | –
18 | B18 | 4.25 | 1770 | binds | binds
19 | B19 | 0.515 | 1870 | binds | binds
20 | B20 | 4.03 | 2020 | binds | binds
21 | B21 | 0.986 | 1820 | binds | binds
22 | B22 | 0.0967 | 1520 | binds | binds
23 | B23 | 1.96 | 1500 | binds | binds
24 | B24 | 0.802 | 1390 | binds | binds
25 | B25 | 7.08 | 1850 | – | –
26 | B26 | 2.67 | 1420 | binds | binds
